The source of these data is patent US20170305975A1.

Assay [1] has as its target amyloid-β 1-42 fibers (fAβ42) (human) (UniProt P05067). Kind of assay: Aβ binding competition assay; ArgC-treated M13 as competitor of Alexa-488 M13.
Assay [2] has the same target. Kind of assay: Aβ binding competition assay; ArgC-treated M13 as competitor of Alexa-488 M13; fifth bar, label printed [5 FOLD] (the text speaks of 15 fold).

Sequence of amyloid-β 1-42 fibers (fAβ42) (human) (P05067 672-713 limits assumed): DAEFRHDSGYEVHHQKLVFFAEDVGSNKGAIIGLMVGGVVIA

In the case of “M13Δg3p (M13 phage with g3p removed by ArgC protease)”, the ALEXA LABELED 488 PELLETED is 86.7 in assay [1] and 85.9 in assay [2].
